According to patent US20260242441A1:

Molecular target: CD45 (PTPRC) phosphatase, endogenous, of Jurkat cells and human PBMC (human) (UniProt P08575)
Experiment: cell-based or functional assay

Work on “soluble recombinant human BTN2A2-Fc fusion protein (baculovirus / insect cell derived)” yielded an expansion of CD4+CD25+CD127low/-Foxp3+ Treg cells in human PBMC MLR, with or without CD45 inhibitor of 2 fold.
